Experimental data as given in article PMC11098746 (2024).

B1: ADP358 (protein)
chain: MARSPGRAYALLLLLICFNVGSGLHLQVLSTRNENKLLPKHPHLVRQKRAWITAPVALREGEDLSKKNPIAKIHSDLAEERGLKITYKYTGKGITEPPFGIFVFNKDTGELNVTSILDREETPFFLLTGYALDARGNNVEKPLELRIKVLDINDNEPVFTQDVFVGSVEELSAAHTLVMKINATDADEPNTLNSKISYRIVSLEPAYPPVFYLNKDTGEIYTTSVTLDREEHSSYTLTVEARDGNGEVTDKPVKQAQVQIRILDVNDNIPVVENKVLEGMVEENQVNVEVTRIKVFDADEIGSDNWLANFTFASGNEGGYFHIETDAQTNEGIVTLIKEVDYEEMKNLDFSVIVANKAAFHKSIRSKYKPTPIPIKVKVKNVKEGIHFKSSVISIYVSESMDRSSKGQIIGNFQAFDEDTGLPAHARYVKLEDRDNWISVDSVTSEIKLAKLPDFESRYVQNGTYTVKIVAISEDYPRKTITGTVLINVEDINDNCPTLIEPVQTICHDAEYVNVTAEDLDGHPNSGPFSFSVIDKPPGMAEKWKIARQESTSVLLQQSEKKLGRSEIQFLISDNQGFSCPEKQVLTLTVCECLHGSGCREAQHDSYVGLGP
modifications: bait human Fc-tagged dimer
B2: ADP262 (protein)
chain: QNSQLQEELRGLRETFSNFTASTEAQVKGLSTQGGNVGRKMKSLESQLEKQQKDLSEDHSSLLLHVKQFVSDLRSLSCQMAALQGNGSERTCCPVNWVEHERSCYWFSRSGKAWADADNYCRLEDAHLVVVTSWEEQKFVQHHIGPVNTWMGLHDQNGPWKWVDGTDYETGFKNWRPEQPDDWYGHGLGGGEDCAHFTDDGRWNDDVCQRPYRWVCETELDKASQEPPLL
modifications: bait human Fc-tagged dimer
B3: ADP343 (protein)
chain: MALASAAPGSIFCKQLLFSLLVLTLLCDACQKVYLRVPSHLQAETLVGKVNLEECLKSASLIRSSDPAFRILEDGSIYTTHDLILSSERKSFSIFLSDGQRREQQEIKVVLSARENKSPKKRHTKDTALKRSKRRWAPIPASLMENSLGPFPQHVQQIQSDAAQNYTIFYSISGPGVDKEPFNLFYIEKDTGDIFCTRSIDREKYEQFALYGYATTADGYAPEYPLPLIIKIEDDNDNAPYFEHRVTIFTVPENCRSGTSVGKVTATDLDEPDTLHTRLKYKILQQIPDHPKHFSIHPDTGVITTTTPFLDREKCDTYQLIMEVRDMGGQPFGLFNTGTITISLEDENDNPPSFTETSYVTEVEENRIDVEILRMKVQDQDLPNTPHSKAVYKILQGNENGNFIISTDPNTNEGVLCVVKPLNYEVNRQVILQVGVINEAQFSKAASSQTPTMCTTTVTVKIIDSDEGPECHPPVKVIQSQDGFPAGQELLGYKALDPEISSGEGLRYQKLGDEDNWFEINQHTGDLRTLKVLDRESKFVKNNQYNISVVAVDAVGRSCTGTLVVHLDDYNDHAPQIDKEVTICQNNEDFAVLKPVDPDGPENGPPFQFFLDNSASKNWNIEEKDGKTAILRQRQNLDYNYYSVPIQIKDRHGLVATHMLTVRVCDCSTPSECRMKDKSTRDVRPNVILG
modifications: bait human Fc-tagged dimer
B4: ADP117 (protein)
chain: MAAPGSARRPLLLLLLLLLLGLMHCASAAMFMVKNGNGTACIMANFSAAFSVNYDTKSGPKNMTFDLPSDATVVLNRSSCGKENTSDPSLVIAFGRGHTLTLNFTRNATRYSVQLMSFVYNLSDTHLFPNASSKEIKTVESITDIRADIDKKYRCVSGTQVHMNNVTVTLHDATIQAYLSNSSFSRGETRCEQDRPSPTTAPPAPPSPSPSPVPKSPSVDKYNVSGTNGTCLLASMGLQLNLTYERKDNTTVTRLLNINPNKTSASGSCGAHLVTLELHSEGTTVLLFQFGMNASSSRFFLQGIQLNTILPDARDPAFKAANGSLRALQATVGNSYKCNAEEHVRVTKAFSVNIFKVWVQAFKVEGGQFGSVEECLLDENSMLIP
modifications: bait human Fc-tagged dimer
B5: ADP353 (protein)
chain: MAARWRFWCVSVTMVVALLIVCDVPSASAQRKKEMVLSEKVSQLMEWTNKRPVIRMNGDKFRRLVKAPPRNYSVIVMFTALQLHRQCVVCKQADEEFQILANSWRYSSAFTNRIFFAMVDFDEGSDVFQMLNMNSAPTFINFPAKGKPKRGDTYELQVRGFSAEQIARWIADRTDVNIRVIRPP
modifications: bait human Fc-tagged dimer
B6: ADP118 (protein)
chain: MARAAALLPSRSPPTPLLWPLLLLLLLETGAQDVRVQVLPEVRGQLGGTVELPCHLLPPVPGLYISLVTWQRPDAPANHQNVAAFHPKMGPSFPSPKPGSERLSFVSAKQSTGQDTEAELQDATLALHGLTVEDEGNYTCEFATFPKGSVRGMTWLRVIAKPKNQAEAQKVTFSQDPTTVALCISKEGRPPARISWLSSLDWEAKETQVSGTLAGTVTVTSRFTLVPSGRADGVTVTCKVEHESFEEPALIPVTLSVRYPPEVSISGYDDNWYLGRTDATLSCDVRSNPEPTGYDWSTTSGTFPTSAVAQGSQLVIHAVDSLFNTTFVCTVTNAVGMGRAEQVIFVRETPNTAGAGAT
modifications: bait human Fc-tagged dimer
B7: ADP128 (protein)
chain: MAAEGWIWRWGWGRRCLGRPGLLGPGPGPTTPLFLLLLLGSVTADITDGNSEHLKREHSLIKPYQGVGSSSMPLWDFQGSTMLTSQYVRLTPDERSKEGSIWNHQPCFLKDWEMHVHFKVHGTGKKNLHGDGIALWYTRDRLVPGPVFGSKDNFHGLAIFLDTYPNDETTERVFPYISVMVNNGSLSYDHSKDGRWTELAGCTADFRNRDHDTFLAVRYSRGRLTVMTDLEDKNEWKNCIDITGVRLPTGYYFGASAGTGDLSDNHDIISMKLFQLMVEHTPDEESIDWTKIEPSVNFLKSPKDNVDDPTGNFRSGPLT
modifications: bait human Fc-tagged dimer
B8: ADP154 (protein)
chain: MAGKWLLCMLLVLGTAIVEAHDGHDDDVIDIEDDLDDVIEEVEDSKPDTTAPPSSPKVTYKAPVPTGEVYFADSFDRGTLSGWILSKAKKDDTDDEIAKYDGKWEVEEMKESKLPGDKGLVLMSRAKHHAISAKLNKPFLFDTKPLIVQYEVNFQNGIECGGAYVKLLSKTPELNLDQFHDKTPYTIMFGPDKCGEDYKLHFIFRHKNPKTGIYEEKHAKRPDADLKTYFTDKKTHLYTLILNPDNSFEILVDQSVVNSGNLLNDMTPPVNPSREIEDPEDRKPEDWDERPKIPDPEAVKPDDWDEDAPAKIPDEEATKPEGWLDDEPEYVPDPDAEKPEDWDEDMDGEWEAPQIANPRCESAPGCGVWQRPVIDNPNYKGKWKPPMIDNPSYQGIWKPRKIPNPDFFEDLEPFRMTPFSAIGLELWSMTSDIFFDNFIICADRRIVDDWANDGWGLKKAADGAAEPGVVGQMIEAAEERP
modifications: bait human Fc-tagged dimer
B9: ADP133 (protein)
chain: MAPLRPLLILALLAWVALADQESCKGRCTEGFNVDKKCQCDELCSYYQSCCTDYTAECKPQVTRGDVFTMPEDEYTVYDDGEEKNNATVHEQVGGPSLTSDLQAQSKGNPEQTPVLKPEEEAPAPEVGASKPEGIDSRPETLHPGRPQPPAEEELCSGKPFDAFTDLKNGSLFAFRGQYCYELDEKAVRPGYPKLIRDVWGIEGPIDAAFTRINCQGKTYLFKGSQYWRFEDGVLDPDYPRNISDGFDGIPDNVDAALALPAHSYSGRERVYFFKGKQYWEYQFQHQPSQEECEGSSLSAVFEHFAMMQRDSWEDIFELLFWGRTSAGTRQPQFISRDWHGVPGQVDAAMAGRIYISGMAPRPSLAKKQRFRHRNRKGYRSQRGHSRGRNQNSRRPSRATWLSLFSSEESNLGANNYDDYRMDWLVPATCEPIQSVFFFSGDKYYRVNLRTRRVDTVDPPYPRSIAQYWLGCPAPGHL
modifications: bait human Fc-tagged dimer
B10: ADP302 (protein)
chain: MAAWKSWTALRLCATVVVLDMVVCKGFVEDLDESFKENRNDDIWLVDFYAPWCGHCKKLEPIWNEVGLEMKSIGSPVKVGKMDATSYSSIASEFGVRGYPTIKLLKGDLAYNYRGPRTKDDIIEFAHRVSGALIRPLPSQQMFEHMQKRHRVFFVYVGGESPLKEKYIDAASELIVYTYFFSASEEVVPEYVTLKEMPAVLVFKDETYFVYDEYEDGDLSSWINRERFQNYLAMDGFLLYELGDTGKLVALAVIDEKNTSVEHTRLKSIIQEVARDYRDLFHRDFQFGHMDGNDYINTLLMDELTVPTVVVLNTSNQQYFLLDRQIKNVEDMVQFINNILDGTVEAQGGDSILQRLKRIVFDAKSTIVSIFKSSP
modifications: bait human Fc-tagged dimer
B11: ADP104 (protein)
chain: MEPPDAPAQARGAPRLLLLAVLLAAHPDAQAEVRLSVPPLVEVMRGKSVILDCTPTGTHDHYMLEWFLTDRSGARPRLASAEMQGSELQVTMHDTRGRSPPYQLDSQGRLVLAEAQVGDERDYVCVVRAGAAGTAEATARLNVFAKPEATEVSPNKGTLSVMEDSAQEIATCNSRNGNPAPKITWYRNGQRLEVPVEMNPEGYMTSRTVREASGLLSLTSTLYLRLRKDDRDASFHCAAHYSLPEGRHGRLDSPTFHLTLHYPTEHVQFWVGSPSTPAGWVREGDTVQLLCRGDGSPSPEYTLFRLQDEQEEVLNVNLEGNLTLEGVTRGQSGTYGCRVEDYDAADDVQLSKTLELRVAYLDPLELSEGKVLSLPLNSSAVVNCSVHGLPTPALRWTKDSTPLGDGPMLSLSSITFDSNGTYVCEASLPTVPVLSRTQNFTLLVQGSPELKTAEIEPKADGSWREGDEVTLICSARGHPDPKLSWSQLGGSPAEPIPGRQGWVSSSLTLKVTSALSRDGISCEASNPHGNKRHVFHFGTVSPQTSQAG
modifications: bait human Fc-tagged dimer
B12: ADP147 (protein)
chain: MAACGRVRRMFRLSAALHLLLLFAAGAEKLPGQGVHSQGQGPGANFVSFVGQAGGGGPAGQQLPQLPQSSQLQQQQQQQQQQQQPQPPQPPFPAGGPPARRGGAGAGGGWKLAEEESCREDVTRVCPKHTWSNNLAVLECLQDVREPENEISSDCNHLLWNYKLNLTTDPKFESVAREVCKSTITEIKECADEPVGKGYMVSCLVDHRGNITEYQCHQYITKMTAIIFSDYRLICGFMDDCKNDINILKCGSIRLGEKDAHSQGEVVSCLEKGLVKEAEEREPKIQVSELCKKAILRVAELSSDDFHLDRHLYFACRDDRERFCENTQAGEGRVYKCLFNHKFEESMSEKCREALTTRQKLIAQDYKVSYSLAKSCKSDLKKYRCNVENLPRSREARLSYLLMCLESAVHRGRQVSSECQGEMLDYRRMLMEDFSLSPEIILSCRGEIEHHCSGLHRKGRTLHCLMKVVRGEKGNLGMNCQQALQTLIQETDPGADYRIDRALNEACESVIQTACKHIRSGDPMILSCLMEHLYTEKMVEDCEHRLLELQYFISRDWKLDPVLYRKCQGDASRLCHTHGWNETSEFMPQGAVFSCLYRHAYRTEEQGRRLSRECRAEVQRILHQRAMDVKLDPALQDKCLIDLGKWCSEKTETGQELECLQDHLDDLVVECRDIVGNLTELESEDIQIEALLMRACEPIIQNFCHDVADNQIDSGDLMECLIQNKHQKDMNEKCAIGVTHFQLVQMKDFRFSYKFKMACKEDVLKLCPNIKKKVDVVICLSTTVRNDTLQEAKEHRVSLKCRRQLRVEELEMTEDIRLEPDLYEACKSDIKNFCSAVQYGNAQIIECLKENKKQLSTRCHQKVFKLQETEMMDPELDYTLMRVCKQMIKRFCPEADSKTMLQCLKQNKNSELMDPKCKQMITKRQITQNTDYRLNPMLRKACKADIPKFCHGILTKAKDDSELEGQVISCLKLRYADQRLSSDCEDQIRIIIQESALDYRLDPQLQLHCSDEISSLCAEEAAAQEQTGQVEECLKVNLLKIKTELCKKEVLNMLKESKADIFVDPVLHTACALDIKHHCAAITPGRGRQMSCLMEALEDKRVRLQPECKKRLNDRIEMWSYAAKVAPADGFSDLAMQVMTSPS
modifications: bait human Fc-tagged dimer

molecular target: Circumsporozoite protein (CSP) (Plasmodium falciparum (isolate 3D7), UniProt Q7K740); assay: AVEXIS screen signal:noise (double-corrected)
Sequence (Q7K740 19-374): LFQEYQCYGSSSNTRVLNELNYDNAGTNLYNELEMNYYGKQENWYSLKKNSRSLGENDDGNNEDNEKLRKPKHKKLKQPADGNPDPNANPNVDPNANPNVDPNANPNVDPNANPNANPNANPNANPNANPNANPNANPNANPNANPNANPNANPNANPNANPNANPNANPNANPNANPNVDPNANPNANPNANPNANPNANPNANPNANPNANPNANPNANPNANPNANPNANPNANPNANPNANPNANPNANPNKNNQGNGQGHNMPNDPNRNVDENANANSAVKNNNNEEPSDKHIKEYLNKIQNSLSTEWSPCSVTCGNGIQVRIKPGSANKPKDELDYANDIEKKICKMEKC

Compared with B1, B2 is lower in binding score: 1.38 for the first, 0.921 for the second.

First: B3
Second: B4
The binding score of the first is lower: 0.814 for the first, 0.992 for the second.

First: B5
Second: B6
The binding score of the first is higher: 1.49 for the first, 0.743 for the second.

Going from B7 to B8, the binding score falls from 1.03 to 0.77.

Compared with B9, B10 is higher in binding score: 1.13 for the first, 1.19 for the second.

First: B11
Second: B12
The binding score of the first is higher: 1.08 for the first, 0.989 for the second.
